Broadly, the kcat is the number of substrate molecules converted per active site and unit of time at saturation. The kcat/Km is the second-order rate constant that governs catalysis at low substrate concentration.

This is an account of results in publication PMC12624782 (The Journal of Biological Chemistry, 2025).

Data set [1] deals with T1, TaGST-10 (Triticum aestivum, UniProt A0A3B5XZG4).
T1 sequence (A0A3B5XZG4 1-234): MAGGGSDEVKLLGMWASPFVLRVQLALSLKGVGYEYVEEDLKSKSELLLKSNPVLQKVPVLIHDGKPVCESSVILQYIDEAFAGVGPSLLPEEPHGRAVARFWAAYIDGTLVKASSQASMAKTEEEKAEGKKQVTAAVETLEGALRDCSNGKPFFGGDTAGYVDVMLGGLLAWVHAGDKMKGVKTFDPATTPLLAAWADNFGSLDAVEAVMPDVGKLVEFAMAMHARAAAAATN
The data set is described as follows: co-crystal structure, […] Å. It counts as binding. On the set-up: gene LOC123049460; TaGST-10 after TEV removal of the N-His6-MBP tag; dimer in the asymmetric unit.

The target in data set [2] is T1, TaGST-10. In words: LC-MS/MS of DON-13-GSH formation, […] DON, apparent specific activity. It counts as biochemical. On the set-up: gene LOC123049460; N-His6-SUMO-TaGST-10, IMAC and size-exclusion purified.
Substrate in data set [3]: N[C@@H](CCC(=O)N[C@@H](CS)C(=O)NCC(=O)O)C(=O)O
In words: purified protein. It counts as biochemical, Triticum aestivum. Conditions: G-site in the N-terminal domain; pH 6.5; 20.0 °C.

Substrate in data set [4]: S=C=NCCc1ccccc1
The data set is described as follows: purified protein. It counts as biochemical, Triticum aestivum. Conditions: GSH; pH 6.5; 20.0 °C.

Substrate in data set [5]: C=C(CC)C(=O)c1ccc(OCC(=O)O)c(Cl)c1Cl
The data set is described as follows: purified protein. Conditions: GSH; pH 6.5; 20.0 °C.

As to `CC1=C[C@H]2O[C@@H]3[C@H](O)C[C@](C)([C@]24CO[C@@]1(O)[C@H]4O)[C@]3(O)CSC[C@H](NC(=O)CC[C@H](N)C(=O)O)C(=O)NCC(=O)O` (mixture of isomers) [DON-13-GSH], the “co-crystal structure, 2.3 Å” value on TaGST-10 [1] is “TaGST-10 crystallized as a dimer in the asymmetric unit and contained a molecule of DON-13-GSH in each active site”.
In the case of `CC1=C[C@H]2O[C@@H]3[C@H](O)C[C@](C)([C@@]2(CO)[C@H](O)C1=O)[C@]31CO1` [DON, deoxynivalenol], the “LC-MS/MS of DON-13-GSH formation, 5 mM DON, apparent specific activity” value at TaGST-10 [2] was 6.3 10^−5 ± 0.4 10^−5.

B1: TaGST-10 (Triticum aestivum) (protein)
chain: T1 sequence (A0A3B5XZG4 1-234)
notes: N-His6-MBP-TaGST-10 (full-length fusion)
As to B1, the K0.5 amounted to 0.46 ± 0.01 mM in “purified protein [3]”, 0.041 ± 0.004 mM in the data set “purified protein [4]” and 0.023 ± 0.003 mM in the data set “purified protein [5]”. In addition, the results for the kcat in the data set “purified protein [4]” and in “purified protein [5]” were 2 s⁻¹ and 0.13 s⁻¹, respectively. Also, the values for the kcat/Km in the data set “purified protein [4]” and in the data set “purified protein [5]” were 47000 M⁻¹ s⁻¹ and 5500 M⁻¹ s⁻¹, respectively.
